# Measured values from patent US20240366776A1 (Hoffmann-La Roche, published 2024).
# T1: biotinylated IL-2 receptor beta gamma heterodimer Fc (IL-2RBG; Acro ILG-H5254) (UniProt P14784 27-239; P31785 23-262, biotinylated)
# T1 construct: bought heterodimer
# T1 sequence (looked up) 1: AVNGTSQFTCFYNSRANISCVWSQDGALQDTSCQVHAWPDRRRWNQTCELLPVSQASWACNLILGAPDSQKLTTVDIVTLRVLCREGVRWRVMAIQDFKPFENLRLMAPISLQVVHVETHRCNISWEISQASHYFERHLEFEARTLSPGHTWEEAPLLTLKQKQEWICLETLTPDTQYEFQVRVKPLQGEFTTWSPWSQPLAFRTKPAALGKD
# T1 sequence (looked up) 2: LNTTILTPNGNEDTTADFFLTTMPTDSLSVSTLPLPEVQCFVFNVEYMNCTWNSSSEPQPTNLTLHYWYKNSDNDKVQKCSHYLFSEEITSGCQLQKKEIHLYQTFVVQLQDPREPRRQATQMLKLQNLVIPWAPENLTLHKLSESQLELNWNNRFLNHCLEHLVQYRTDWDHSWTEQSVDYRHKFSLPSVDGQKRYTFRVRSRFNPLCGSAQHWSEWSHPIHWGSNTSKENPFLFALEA
# B1: AF003657 (other)
# heavy: APASSSTKKTQLQLEHLLLDLQMILNGINNYKNPKLTRMLTAKFAMPKKATELKHLQCLEEELKPLEEVLNGAQSKNFHLRPRDLISNINVIVLELKGSETTFMCEYADETATIVEFLNRWITFAQSIISTLTGGGGSGGGGSGGGGSGGGGSQVQLVQSGAEVKKPGASVKVSCKASGDTFTRYYVHWVRQAPGQGLEWMGIINPSGGYASYAQKFQGRVTMTRDTSTSTVYMELSSLRSEDTAVYYCAAGLFIWGQGTLVTVSSAKTTAPSVYPLAPVCGDTTGSSVTLGCLVKGYFPEPVTLTWNSGSLSSGVHTFPAVLQSDLYTLSSSVTVTSSTWPSQSITCNVAHPASSTKVDKKIEPRGPTIKPCPPCKCPAPNAAGGPSVFIFPPKIKDVLMISLSPIVTCVVVDVSEDDPDVQISWFVNNVEVHTAQTQTHREDYNSTLRVVSALPIQHQDWMSGKEFKCKVNNKDLGAPIERTISKPKGSVRAPQVYVLPPPEEEMTKKQVTLTCMVTDFMPEDIYVEWTNNGKTELNYKNTEPVLDSDGSYFMYSKLRVEKKNWVERNSYSCSVVHEGLHNHHTTKSFSRTPGK
# light: DIQMTQSPSSLSASVGDRVTITCRASQSIGRWLAWYQQKPGKAPKLLIYSASNLETGVPSRFSGSGSGTDFTLTISSLQPEDFATYYCQQYESFPVTFGPGTKVDIKRADAAPTVSIFPPSSEQLTSGGASVVCFLNNFYPKDINVKWKIDGSERQNGVLNSWTDQDSKDSTYSMSSTLTLTKDEYERHNSYTCEATHKTSTSPIVKSFNRNEC
# notes: also called AF3657
# B2: AF003247 (other)
# heavy: APASSSTKKTQLQLEHLLLDLQMILNGINNYKNPKLTRMLTAKFAMPKKATELKHLQCLEEELKPLEEVLNGAQSKNFHLRPRDLISNINVIVLELKGSETTFMCEYADETATIVEFLNRWITFAQSIISTLTGGGGSGGGGSGGGGSGGGGSQVQLVQSGAEVKKPGASVKVSCKASGDTFTRHYVHWVRQAPGQGLEWMGIINPSGGYASYAQKFQGRVTMTRDTSTSTVYMELSSLRSEDTAVYYCAAGLFIWGQGTLVTVSSAKTTAPSVYPLAPVCGDTTGSSVTLGCLVKGYFPEPVTLTWNSGSLSSGVHTFPAVLQSDLYTLSSSVTVTSSTWPSQSITCNVAHPASSTKVDKKIEPRGPTIKPCPPCKCPAPNAAGGPSVFIFPPKIKDVLMISLSPIVTCVVVDVSEDDPDVQISWFVNNVEVHTAQTQTHREDYNSTLRVVSALPIQHQDWMSGKEFKCKVNNKDLGAPIERTISKPKGSVRAPQVYVLPPPEEEMTKKQVTLTCMVTDFMPEDIYVEWTNNGKTELNYKNTEPVLDSDGSYFMYSKLRVEKKNWVERNSYSCSVVHEGLHNHHTTKSFSRTPGK
# light: DIQMTQSPSSLSASVGDRVTITCRASQSIGRWLAWYQQKPGKAPKLLIYSASNLETGVPSRFSGSGSGTDFTLTISSLQPEDFATYYCQQYESFPVTFGPGTKVDIKRADAAPTVSIFPPSSEQLTSGGASVVCFLNNFYPKDINVKWKIDGSERQNGVLNSWTDQDSKDSTYSMSSTLTLTKDEYERHNSYTCEATHKTSTSPIVKSFNRNEC
# notes: also called AF3247
# B3: AF003644 (other)
# heavy: APASSSTKKTQLQLEHLLLDLQMILNGINNYKNPKLTRMLTAKFAMPKKATELKHLQCLEEELKPLEEVLNGAQSKNFHLRPRDLISNINVIVLELKGSETTFMCEYADETATIVEFLNRWITFAQSIISTLTGGGGSGGGGSGGGGSGGGGSQVQLVQSGAEVKKPGASVKVSCKASGDTFTRYYVHWVRQAPGQGLEWMGIINPSGGYASYAQKFQGRVTMTRDTSTSTVYMELSSLRSEDTAVYYCAAGLFIWGQGTLVTVSSAKTTAPSVYPLAPVCGDTTGSSVTLGCLVKGYFPEPVTLTWNSGSLSSGVHTFPAVLQSDLYTLSSSVTVTSSTWPSQSITCNVAHPASSTKVDKKIEPRGPTIKPCPPCKCPAPNAAGGPSVFIFPPKIKDVLMISLSPIVTCVVVDVSEDDPDVQISWFVNNVEVHTAQTQTHREDYNSTLRVVSALPIQHQDWMSGKEFKCKVNNKDLGAPIERTISKPKGSVRAPQVYVLPPPEEEMTKKQVTLTCMVTDFMPEDIYVEWTNNGKTELNYKNTEPVLDSDGSYFMYSKLRVEKKNWVERNSYSCSVVHEGLHNHHTTKSFSRTPGK
# light: DIQMTQSPSSLSASVGDRVTITCRASQSIGRWLAWYQQKPGKAPKLLIYSASNLETGVPSRFSGSGSGTDFTLTISSLQPEDFATYYCQQYNSFPVTFGPGTKVDIKRADAAPTVSIFPPSSEQLTSGGASVVCFLNNFYPKDINVKWKIDGSERQNGVLNSWTDQDSKDSTYSMSSTLTLTKDEYERHNSYTCEATHKTSTSPIVKSFNRNEC
# notes: also called AF3644
# B4: AF003651 (other)
# heavy: APASSSTKKTQLQLEHLLLDLQMILNGINNYKNPKLTRMLTAKFAMPKKATELKHLQCLEEELKPLEEVLNGAQSKNFHLRPRDLISNINVIVLELKGSETTFMCEYADETATIVEFLNRWITFAQSIISTLTGGGGSGGGGSGGGGSGGGGSQVQLVQSGAEVKKPGASVKVSCKASGDTFTRYYVHWVRQAPGQGLEWMGIINPSGGYASYAQKFQGRVTMTRDTSTSTVYMELSSLRSEDTAVYYCAAGLFIWGQGTLVTVSSAKTTAPSVYPLAPVCGDTTGSSVTLGCLVKGYFPEPVTLTWNSGSLSSGVHTFPAVLQSDLYTLSSSVTVTSSTWPSQSITCNVAHPASSTKVDKKIEPRGPTIKPCPPCKCPAPNAAGGPSVFIFPPKIKDVLMISLSPIVTCVVVDVSEDDPDVQISWFVNNVEVHTAQTQTHREDYNSTLRVVSALPIQHQDWMSGKEFKCKVNNKDLGAPIERTISKPKGSVRAPQVYVLPPPEEEMTKKQVTLTCMVTDFMPEDIYVEWTNNGKTELNYKNTEPVLDSDGSYFMYSKLRVEKKNWVERNSYSCSVVHEGLHNHHTTKSFSRTPGK
# light: DIQMTQSPSSLSASVGDRVTITCRASQSIGRYLAWYQQKPGKAPKLLIYSASNLETGVPSRFSGSGSGTDFTLTISSLQPEDFATYYCQQYNSFPVTFGPGTKVDIKRADAAPTVSIFPPSSEQLTSGGASVVCFLNNFYPKDINVKWKIDGSERQNGVLNSWTDQDSKDSTYSMSSTLTLTKDEYERHNSYTCEATHKTSTSPIVKSFNRNEC
# notes: also called AF3651
# B5: AF003934 (other)
# heavy: APASSSTKKTQLQLEHLLLDLQMILNGINNYKNPKLTRMLTAKFAMPKKATELKHLQCLEEELKPLEEVLNGAQSKNFHLRPRDLISNINVIVLELKGSETTFMCEYADETATIVEFLNRWITFAQSIISTLTGGGGSGGGGSGGGGSGGGGSQVQLVQSGAEVKKPGASVKVSCKASGYTFTRYYMHWVRQAPGQGLEWMGIINPRAGYTSYALKFQGRVTMTRDTSTSTVYMELSSLRSEDTAVYYCTSGWDVWGQGTLVTVSSAKTTAPSVYPLAPVCGDTTGSSVTLGCLVKGYFPEPVTLTWNSGSLSSGVHTFPAVLQSDLYTLSSSVTVTSSTWPSQSITCNVAHPASSTKVDKKIEPRGPTIKPCPPCKCPAPNAAGGPSVFIFPPKIKDVLMISLSPIVTCVVVDVSEDDPDVQISWFVNNVEVHTAQTQTHREDYNSTLRVVSALPIQHQDWMSGKEFKCKVNNKDLGAPIERTISKPKGSVRAPQVYVLPPPEEEMTKKQVTLTCMVTDFMPEDIYVEWTNNGKTELNYKNTEPVLDSDGSYFMYSKLRVEKKNWVERNSYSCSVVHEGLHNHHTTKSFSRTPGK
# light: DIQMTQSPSSLSASVGDRVTITCRASQSISTWLAWYQQKPGKAPKLLIYAASSLDSGVPSRFSGSGSGTDFTLTISSLQPEDFATYYCQQSYSFPVTFGQGTKVEIKRADAAPTVSIFPPSSEQLTSGGASVVCFLNNFYPKDINVKWKIDGSERQNGVLNSWTDQDSKDSTYSMSSTLTLTKDEYERHNSYTCEATHKTSTSPIVKSFNRNEC
# notes: also called AF3934
# B6: AF003947 (other)
# heavy 1: APASSSTKKTQLQLEHLLLDLQMILNGINNYKNPKLTRMLTAKFAMPKKATELKHLQCLEEELKPLEEVLNGAQSKNFHLRPRDLISNINVIVLELKGSETTFMCEYADETATIVEFLNRWITFAQSIISTLTGGGGSGGGGSGGGGSGGGGSQVQLVQSGAEVKKPGASVKVSCKASGDTFTRYYVHWVRQAPGQGLEWMGIINPSGGYASYAQKFQGRVTMTRDTSTSTVYMELSSLRSEDTAVYYCAAGLFIWGQGTLVTVSSAKTTAPSVYPLAPVCGDTTGSSVTLGCLVKGYFPEPVTLTWNSGSLSSGVHTFPAVLQSDLYTLSSSVTVTSSTWPSQSITCNVAHPASSTKVDKKIEPRGPTIKPCPPCKCPAPNAAGGPSVFIFPPKIKDVLMISLSPIVTCVVVDVSEDDPDVQISWFVNNVEVHTAQTQTHREDYNSTLRVVSALPIQHQDWMSGKEFKCKVNNKDLGAPIERTISKPKGSVRAPQVYVLPPPEEEMTKKQVTLTCMVTDFMPEDIYVEWTNNGKTELNYKNTEPVLDSDGSYFMYSDLRVEKKNWVERNSYSCSVVHEGLHNHHTTESFSRTPGK
# heavy 2: QVQLVQSGAEVKKPGASVKVSCKASGDTFTRYYVHWVRQAPGQGLEWMGIINPSGGYASYAQKFQGRVTMTRDTSTSTVYMELSSLRSEDTAVYYCAAGLFIWGQGTLVTVSSAKTTAPSVYPLAPVCGDTTGSSVTLGCLVKGYFPEPVTLTWNSGSLSSGVHTFPAVLQSDLYTLSSSVTVTSSTWPSQSITCNVAHPASSTKVDKKIEPRGPTIKPCPPCKCPAPNAAGGPSVFIFPPKIKDVLMISLSPIVTCVVVDVSEDDPDVQISWFVNNVEVHTAQTQTHREDYNSTLRVVSALPIQHQDWMSGKEFKCKVNNKDLGAPIERTISKPKGSVRAPQVYVLPPPEKEMTKKQVSLTCLVKDFMPEDIYVEWTNNGKTELNYKNTEPVLKSDGSYFMYSKLTVEKKNWVERNSYSCSVVHEGLHNHHTTKSFSRTPGGGGSGGGSHHHHHH
# light: DIQMTQSPSSLSASVGDRVTITCRASQSIGRWLAWYQQKPGKAPKLLIYSASNLETGVPSRFSGSGSGTDFTLTISSLQPEDFATYYCQQYERFPVTFGPGTKVDIKRADAAPTVSIFPPSSEQLTSGGASVVCFLNNFYPKDINVKWKIDGSERQNGVLNSWTDQDSKDSTYSMSSTLTLTKDEYERHNSYTCEATHKTSTSPIVKSFNRNEC
# notes: also called AF3947
# Molecular target: T1, biotinylated IL-2 receptor beta gamma …
# Assay: ELISA, captured complex, biotin-IL-2RBG 10 nM, PD-1 Fc titrated
# Procedure: The DBA-cytokine complexes and control antibody-cytokine complexes were produced in two formats: (1) “Symmetric” immunocytokine (shown in FIG. 2E); or (2) “Asymmetric” immunocytokine (shown in FIG. 2B) by expression in mammalian cells and purified using standard protocols. […] To perform the assay, 384-well ELISA plates were coated with anti-Fc antibody at 1 micrograms/ml in 100 mM bicarbonate solution pH 9.0 overnight at 4° C. and washed twice with SUPERBLOCK™. Antibody-cytokine complexes were then added to each well at a constant concentration of 6 nM and allowed to incubate for 1 hour and washed three times in PBS plus 0.05% TWEEN® 20 (PBST). Titrated concentrations of PD-1 Fc or an IgG1 control Fc were added and allowed to incubate for 15 minutes before the addition of a constant amount of biotinylated IL-2RBG at 10 nM. The plates were incubated for an additional 30 minutes, washed and biotinylated IL-2RBG detection was performed using streptavidin-HRP and standard ELISA protocols.
row,Binder,binding result
1,B1,binds
2,B2,binds
3,B3,binds
4,B4,binds
5,B5,binds
6,B6,binds
